From patent US20090191584, “Transcriptional repression of sodium-iodide symporter in thyroid carcinoma” (UNIVERSITY OF KENTUCKY RESEARCH FOUNDATION, published 2009)

Target: PARP-1 (commercial) (Homo sapiens, UniProt P09874 SEQ:1-1013)
Experiment: EMSA; 1.5 ug purified PARP-1, no shift
Conditions: tags: Trevigen; label: 32P
Experimental: To evaluate whether purified PARP-1 is associated with NRBS, Applicants performed EMSA using commercial PARP-1 and radiolabeled Probe A (FIG. 18, lane 3). […] As PARP-1 was reported to bind to DNA using its N-terminal domain, the N-terminal DNA-binding domain (1-372 aa) from human PARP-1 were stably transfected into KAK-1 cells. Nuclear extract from multiple pooled positive clones from this transfection or a single positive clone from the same transfection experiment were incubated with labeled Probe A and subjected to EMSA (FIG. 18; lanes 6 & 10, respectively). The gel-shift bands produced were not appreciably different from those produced by nuclear extract from KAK-1 cells transfected with the empty vector (pCR3.1; lane 8) or those produced by parental KAK-1 nuclear extract (lane 2). Addition of cold Probe A, in each case, competed similarly against their respective matched lanes (lanes 3, 7, 9, & 11).

Chain of PARP-1 (commercial) (P09874 2-1014): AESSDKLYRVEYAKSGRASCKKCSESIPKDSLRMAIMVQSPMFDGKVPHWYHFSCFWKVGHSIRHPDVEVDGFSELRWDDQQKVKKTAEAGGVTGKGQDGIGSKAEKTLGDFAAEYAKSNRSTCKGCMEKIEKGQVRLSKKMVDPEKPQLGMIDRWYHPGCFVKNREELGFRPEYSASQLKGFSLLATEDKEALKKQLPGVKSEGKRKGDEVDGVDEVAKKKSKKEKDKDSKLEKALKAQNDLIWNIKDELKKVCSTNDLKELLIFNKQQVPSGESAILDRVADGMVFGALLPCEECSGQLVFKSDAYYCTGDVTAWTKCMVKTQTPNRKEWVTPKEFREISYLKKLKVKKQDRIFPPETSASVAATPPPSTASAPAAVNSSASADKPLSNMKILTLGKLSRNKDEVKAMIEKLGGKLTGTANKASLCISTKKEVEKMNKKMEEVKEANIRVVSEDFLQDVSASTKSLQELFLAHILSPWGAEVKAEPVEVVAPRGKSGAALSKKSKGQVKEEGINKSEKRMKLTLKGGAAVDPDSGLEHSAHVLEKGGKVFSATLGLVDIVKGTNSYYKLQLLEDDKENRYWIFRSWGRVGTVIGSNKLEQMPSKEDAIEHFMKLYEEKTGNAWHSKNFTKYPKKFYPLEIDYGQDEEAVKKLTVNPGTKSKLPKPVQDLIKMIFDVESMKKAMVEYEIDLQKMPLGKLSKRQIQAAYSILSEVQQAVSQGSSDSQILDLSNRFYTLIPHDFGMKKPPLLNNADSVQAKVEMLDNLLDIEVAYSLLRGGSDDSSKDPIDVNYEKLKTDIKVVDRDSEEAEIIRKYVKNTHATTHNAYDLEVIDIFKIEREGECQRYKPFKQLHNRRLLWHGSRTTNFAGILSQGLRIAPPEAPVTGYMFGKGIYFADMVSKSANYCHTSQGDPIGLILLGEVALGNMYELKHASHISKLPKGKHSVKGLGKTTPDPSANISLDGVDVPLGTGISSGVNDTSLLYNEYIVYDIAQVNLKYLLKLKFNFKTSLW

B1: Probe A (-684 to -565 hNIS) (dsDNA)
DNA 1: AAGCAGGCTGTGCAGGCTTGGATAGTGACATGCCCTTTTTGAGCCTCAATTTCCCCACCTGTCAACAGCAGACAGTGACAGCTGTGATCAGGGGATCACAGTGCATGGGGATGGGTGTGT
DNA 2: ACACACCCATCCCCATGCACTGTGATCCCCTGATCACAGCTGTCACTGTCTGCTGTTGACAGGTGGGGAAATTGAGGCTCAAAAAGGGCATGTCACTATCCAAGCCTGCACAGCCTGCTT
Question: Does B1 bind?
Answer: no binding
